Test results taken from patent publication US20110262525A1, “METHODS OF TREATMENT” (SCHERING CORPORATION, priority 2006, published 2011).
Marks after values point to notes of the source that are not given here.

Tests used:
[1] = system: squamous cell carcinoma cell line SCC 25; test: Cell-Titer Glo proliferation assay, SCC25; format: cell-based; settings: 0.000256-100 nM antibody, 96 hours
Description: Cell proliferation was assayed using a Cell-Titer Glo assay (Promega Corp.; Madison, Wis.). A cell-titer glo assay generates a “glow” luminescent signal in the presence of ATP from viable cells, which can be detected with a plate reader luminometer or CCD imaging device.
In this assay, squamous cell carcinoma cells, SCC9, SCC25 and SCC15, were trypsinized, counted and resuspended at 25,000 cells/ml in 10% HI-FBS RPMI containing NEAA, L-Glu, MEM Vitamins and PS. […] (2500 cells) were added to each well BD Falcon 96 well black, clear bottom TC treated plate. Cells were allowed to attach and spread overnight at 37° C. Then, 10% RPMI medium was replaced with […] 2% RPMI, containing the LCF/HCA antibody at the appropriate concentration, the following day. The anti-IGF1R antibody concentrations used in each experiment were 100 nM, 20 nM, 5 nM, 0.8 nM, 0.16 nM, 0.032 nM, 0.0064 nM, 0.00128 nM, and 0.000256 nM. All treatments were prepared in 2% RPMI at 20× concentration and serial diluted. Every test point was prepared in triplicate on separate assay plates. As mentioned above, cell proliferation was measured using the CellTiter-Glo Luminescent Cell Viability Assay (Promega) at 96 hours post treatment. Luminescence was detected on a Wallac 420 Plate Reader with stacker.

[2] = system: gastric cancer cell line SNU-16; test: Cell-Titer Glo proliferation assay, SNU-16; format: cell-based, human; settings: 0.000256-100 nM antibody
[3] = system: BT-29 xenograft (Rhabdoid); test: PPTP in vivo xenograft BT-29; settings: BT-29 (Rhabdoid) xenograft, 0.5 mg per mouse ip twice weekly for four weeks
Description: (§1) The PPTP includes a molecularly characterized in vitro panel of cell lines (n=27) and in vivo panel of xenografts (n=61) representing most of the common types of childhood solid tumors and childhood ALL (acute lymphoblastic leukemia). LCF/HCA anti-IGF1R antibody was tested against the PPTP in vitro panel at concentrations ranging from 0.01 nM to 100 nM; and was tested against the PPTP in vivo panel at a dose of 0.5 mg per mouse administered twice weekly for four weeks via intraperitoneal injection. Three measures of antitumor activity were used: 1) response criteria modeled after the clinical setting; 2) treated-to-control (T/C) tumor volume at day 21; and 3) a time to event (4-fold increase in tumor volume) measure based on the median EFS of treated and control lines (intermediate activity required EFS (event-free survival) T/C>2, and high activity additionally required a net reduction in median tumor volume at the end of the experiment).
(§2) Stage 1 testing involved testing an agent across the entire PPTP panel of childhood cancer xenograft lines at its maximum tolerated dose (MTD) or at a dose selected based on PK/PD (pharmacokinetic/pharmacodynamic) studies using adult preclinical models.
(§3) In vivo solid tumor testing: For each xenograft line, 10 mice bearing subcutaneous (SC) tumors initiated treatment when the tumors were between 0.2-0.5 cm^3 in volume. Two perpendicular tumor diameters were measured at once weekly intervals with digital vernier calipers. Assuming tumors to be spherical, volumes were calculated from the formula (π/6)×d3, where d represented the mean diameter.
(§4) Drug: LCF/HCA was dissolved in 20mM sodium acetate pH 5 buffer containing 150 mM sodium chloride, and administered intraperitoneally twice weekly for 4 consecutive weeks at a dose of 0.5 mg per animal. […]
(§5) Median Group Response: Each individual mouse in each treatment group was assigned a response score (see Tables above) and a median score for the treatment group was calculated and then each treatment group was assigned an overall response according to the table below. […]

[4] = system: KT-14 xenograft (Rhabdoid); test: PPTP in vivo xenograft KT-14; set-up: key to EFS activity notation (high, intermediate, indeterminate): high (!); intermediate (#); indeterminate (^); settings: KT-14 (Rhabdoid) xenograft, 0.5 mg per mouse ip twice weekly for four weeks
Description: as §1, §2, §3
(§6) Drug: LCF/HCA was dissolved in 20mM sodium acetate pH 5 buffer containing 150 mM sodium chloride, and administered intraperitoneally twice weekly for 4 consecutive weeks at a dose of 0.5 mg per animal. The antibody was provided to each testing site in coded vials for blinded testing according the PPTP's standard operating procedures.
(§7) Median Group Response: Each individual mouse in each treatment group was assigned a response score (see Tables above) and a median score for the treatment group was calculated and then each treatment group was assigned an overall response according to the table below.
(§8) Statistical Methods: Event-free survival (EFS) distributions of each treatment group were compared to the EFS distribution of the respective control group using the exact log rank test. P-values were 2-sided & were not adjusted for multiple comparisons given the exploratory nature of this study. P-values<0.05 were considered to be significant.

[5] = system: Rh28 xenograft (ALV Rhabdomyosarcoma); test: PPTP in vivo xenograft Rh28; set-up: key to EFS activity notation (high, intermediate, indeterminate): high (!); intermediate (#); indeterminate (^)
Description: as §1, §2, §3, §6, §7, §8

[6] = system: BT-50 xenograft (Medulloblastoma); test: PPTP in vivo xenograft BT-50; settings: BT-50 (Medulloblastoma) xenograft, 0.5 mg per mouse ip twice weekly for four weeks
Description: as §1, §2, §3, §4, §5

[7] = system: OS-33 xenograft (Osteosarcoma); test: PPTP in vivo xenograft OS-33; settings: OS-33 (Osteosarcoma) xenograft, 0.5 mg per mouse ip twice weekly for four weeks
From the text: The PPTP includes a molecularly characterized in vitro panel of cell lines (n=27) and in vivo panel of xenografts (n=61) representing most of the common types of childhood solid tumors and childhood ALL (acute lymphoblastic leukemia).
as §2, §3
The antibody was provided to each testing site in coded vials for blinded testing according the PPTP's standard operating procedures.
as §7, §8

[8] = system: ALL-2 xenograft (ALL B-precursor); test: PPTP in vivo leukemia xenograft ALL-2; settings: ALL-2 (ALL B-precursor) xenograft; 0.5 mg per mouse ip twice weekly for four weeks
Description: The PPTP includes a molecularly characterized in vitro panel of cell lines (n=27) and in vivo panel of xenografts (n=61) representing most of the common types of childhood solid tumors and childhood ALL (acute lymphoblastic leukemia). LCF/HCA anti-IGF1R antibody was tested against the PPTP in vitro panel at concentrations ranging from 0.01 nM to 100 nM; and was tested against the PPTP in vivo panel at a dose of 0.5 mg per mouse administered twice weekly for four weeks via intraperitoneal injection. […]
In vivo acute lymphoblastic leukemia testing: For each xenograft line, 8 mice were inoculated with 3-5×10^6 mononuclear cells purified from the spleens of secondary recipient mice. Engraftment was monitored weekly by flow cytometry, and treatment was initiated when the proportion of human CD45+ cells in the peripheral blood reached 1%. The proportion of human CD45+ cells in the peripheral blood was monitored weekly throughout the course of treatment. […]
as §5

[9] = system: ALL-17 xenograft (ALL B-precursor); test: PPTP in vivo leukemia xenograft ALL-17; set-up: key to EFS activity notation (high, intermediate, indeterminate): high (!); intermediate (#); indeterminate (^); settings: ALL-17 (ALL B-precursor) xenograft; 0.5 mg per mouse ip twice weekly for four weeks
Description: as §1, §2
In vivo acute lymphoblastic leukemia testing: For each xenograft line, 8 mice were inoculated with 3-5×10^6 mononuclear cells purified from the spleens of secondary recipient mice. Engraftment was monitored weekly by flow cytometry, and treatment was initiated when the proportion of human CD45+ cells in the peripheral blood reached 1%. The proportion of human CD45+ cells in the peripheral blood was monitored weekly throughout the course of treatment.
as §6, §7, §8

[10] = 0.5 mg per mouse ip twice weekly for four weeks

B1: LCF/HCA: fully human anti-IGF1R antibody comprising the mature 19D12/15H12 light chain F (LCF) and mature heavy chain A (HCA) (antibody, V domains shown)
VH: EVQLVQSGGGLVHPGGSLRLSCAASGFTFSSFAMHWVRQAPGKGLEWISVIDTRGATYYADSVKGRFTISRDNAKNSLYLQMNSLRAEDMAVYYCARLGNFYYGMDVWGQGTTVTVSS
VL: EIVLTQVPDFQSVTPKEKVTITCRASQSIGSSLHWYQQKPDQSPKLLIKYASQSLSGVPSRFSGSGSGTDFTLTINSLEAEDAAAYYCHQSSRLPHTFGGGTKVEIKRT
B1 was tested, and the “proliferation of squamous cell carcinoma cell line” value [1] was “inhibited”, the “proliferation of gastric cancer cell line” value [2] was “inhibitied” and the “EFS T/C” value [3] was 1.4. For the same molecule, the “Median Final RTV” value [3] was greater than 4, the “Tumor Volume T/C” value ([3]; day 21) was 0.77 and the “EFS T/C” value [4] was greater than 3.3. The “EFS activity notation (high, intermediate, indeterminate)” value (“EFS activity notation” for short) [4] was “#”, the “Median Final RTV” value [4] was 1.6# and the “Overall Group Response” value [4] was “PD2 (1 < MS ≦ 3)”. For the same molecule, the “Tumor Volume T/C” value ([4]; day 21) was 0.6, the “EFS T/C” value [5, 10] was greater than 2.6 and the “EFS activity notation” value [5, 10] was “#”. The “Median Final RTV” value [5, 10] was 2.9#, the “Overall Group Response” value [5, 10] was “PD2 (1 < MS ≦ 3)” and the “Tumor Volume T/C” value ([5]; day 21, 0.5 mg per mouse ip twice weekly for four weeks) was 0.36. For the same molecule, the “Median Final RTV” value [6] was 1.4, the “Overall Group Response” value [6] was “PD2 (1 < MS ≦ 3)” and the “Tumor Volume T/C” value ([6]; day 21) was 0.94. For the same molecule, the “EFS T/C” value [7] was 0.9, the “Median Final RTV” value [7] was greater than 4 and the “Tumor Volume T/C” value ([7]; day 21) was 0.79. The “EFS T/C” value [8] was 0.7, the “Median Final RTV” value [8] was greater than 25 and the “EFS T/C” value [9] was 3.1. The “EFS activity notation” value [9] was “#”, the “Median Final RTV” value [9] was >25# and the “Overall Group Response” value [9] was “PD2 (1 < MS ≦ 3)”.
